Assay results from paper PMC2245940, “Blocking binding of Bacillus thuringiensis Cry1Aa to Bombyx mori cadherin receptor results in only a minor reduction of toxicity” (BMC Biochemistry, 2008).

Legend:
[1] = molecular target: Bombyx mori cadherin-like protein BtR175 (Bombyx mori (endogenous in larval midgut))
[2] = molecular target: Bombyx mori cadherin-like protein BtR175 (Bombyx mori (endogenous in larval midgut)); test: SPR; receptors (100-200 ng) amine-coupled to a CM5 chip; toxin 100-1000 nM injected in HBS pH 7.4 (10 mM Hepes, 150 mM NaCl, 3.4 mM EDTA) at 50 ul/min; blank flowcell subtracted; 1:1 Langmuir fit; apparent rate constants
[3] = molecular target: T1, Bacillus thuringiensis Cry1Aa insecticidal protein, wild type, trypsin-activated toxin (Bacillus thuringiensis, UniProt P0A366 1-1176); test: as above; details: both partners purified
T1 construct: trypsin-resistant 65 kDa toxin cut from the solubilized protoxin; also called Cry1Aa (Wt); Cry1Aa wt; source: E. coli MV1190 containing pBN-1Aa; crystal inclusion bodies solubilized, trypsin-digested, purified (Superdex 200, monomeric fraction)

Question: With “Cry1Aa mutant toxin F328A, trypsin-activated (from UniProt P0A366 1-1176) (natural protein)” as the molecule, how does the LC50 against B. mori larvae (surface contamination bioassay, mortality after 5 days) [1] read?
Answer: 41.5 ng/ccm

Question: And the Kd [2]?
Answer: 60.7 nM

Question: What about the koff [2] of the same molecule?
Answer: 9.1e-05 s⁻¹

Question: And the kon [2]?
Answer: 1500 M⁻¹ s⁻¹

Question: For “Bacillus thuringiensis Cry1Aa insecticidal protein, wild type, trypsin-activated toxin (from UniProt P0A366 1-1176) (natural protein)”, which Kd [2] is on record?
Answer: 2.6 nM

Question: What about the koff [2] of the same molecule?
Answer: 3.3e-05 s⁻¹

Question: And the kon [2]?
Answer: 13000 M⁻¹ s⁻¹

B1: Bombyx mori aminopeptidase N (receptor)
chain: LSPIPVPEDEWVEFARMLRDPAFRLPTTTRPRHYQVTLTPYFDVVPANVNPFTFDGEVTIYTSPTVANVNEVVIHCNDLTIQSLSIGYQSGTNVVDITATGQTFACEMPFSFLRIRTTEALVLNREYIIKSTFRGNLQTNMRGFYRSWYVDSTGRRWMGTTQFQPGHARQAFPCYDEPGFKATFDITMNREESFSPTISNMPIRTTNTLANGRVSETFWTTPVTSTYLLAFIVSHYTVVSTNNNALRPFDIYARNNVGRTGDWSLEIGEKLLEAMEAYTQIPYYTMAENINMKQAAIPDFSAGAMENWGLLTYREALILYDPLNSNHFYKQRVANIVAHEIAHMWFGNLVTCAWWDNLWLNEGFARFYQYYLTASVAPELGYETRFIVEQVQMAMFSDSVDTAHALTDLNVNDPTTVSAHFSTITYARGAAILRMTQHLLGVETFVKGLRNYLRERQFNVAEPHHLFTALDAAAVEDGALNGYGGITIDTYFRTWSEKAGHPLLTVTINQRTGEMIVTQERWERNTGVSQFPSLWHIPITWTRAGAPEFEDLKPSQFISQQVTSINRGTTGLEWVIFNKQEAGFYRVNYDDTNWALLTRALRSSSRTAIHQLNRAQIVDDIFQLARANVMKYNRAFNILSFLQFEDEYAPWLAAISGFNFLIRRLAHDSTNAALLQKLILELSPAVVAKLGYLEPENGSYMTDLQRMYVMEFLCNVGHEECNNFGTQAFRRWSTGTFIPANMRPWVYCAGLRHGTAEDFNFFWNRYLQEDLSSEKVVMLNVAGCTTDQASLNRFLDAIVSGNDDIRPQDYNAALTSAITSNEINTLRAFQWLRNNVDQATRTLGSVSTILNTIIGRLLNEEQINEVSNWLTANQNTLGATYSTALRAIETTRSNLVWSQQRISEFTNYFESGYVEDVIEEITEAPPTAPPTAPPTEAPAVTPAPDSANVAALSFITLIITLAVNLA
Question: With B1 as the molecule, how does the Kd [3] read?
Answer: 75 nM

Question: What about the koff [3] of the same molecule?
Answer: 0.0015 s⁻¹

Question: What about the kon [3] of the same molecule?
Answer: 21000 M⁻¹ s⁻¹
